Experimental data reported in article PMC11931385, “Structural and functional analysis of cancer-associated missense variants in the retinoblastoma protein pocket domain” (The Journal of Biological Chemistry, 2025).
No end group written: not given here. TMR = tetramethyl rhodamine dye

Experiments:
Experiment in all cases: fluorescence polarisation; 25 °C; unlabeled Rb^P titrated against 1.5 nM TMR-E2F1^TD or 7.5 nM TMR-E7^LxCxE; 25 mM Tris pH 8.0, 200 mM NaCl, 1 mM DTT, 0.1% Tween-20; 2 min incubation; quadratic fit; apparent Kd for the variants, Kd for WT
Details in all cases: both partners purified
[1] = target: T1, retinoblastoma protein pocket domain (Rb^P), wild type (human, UniProt P06400 380-788)
T1 construct: also called WT Rb^P; WT
T1 sequence (looked up): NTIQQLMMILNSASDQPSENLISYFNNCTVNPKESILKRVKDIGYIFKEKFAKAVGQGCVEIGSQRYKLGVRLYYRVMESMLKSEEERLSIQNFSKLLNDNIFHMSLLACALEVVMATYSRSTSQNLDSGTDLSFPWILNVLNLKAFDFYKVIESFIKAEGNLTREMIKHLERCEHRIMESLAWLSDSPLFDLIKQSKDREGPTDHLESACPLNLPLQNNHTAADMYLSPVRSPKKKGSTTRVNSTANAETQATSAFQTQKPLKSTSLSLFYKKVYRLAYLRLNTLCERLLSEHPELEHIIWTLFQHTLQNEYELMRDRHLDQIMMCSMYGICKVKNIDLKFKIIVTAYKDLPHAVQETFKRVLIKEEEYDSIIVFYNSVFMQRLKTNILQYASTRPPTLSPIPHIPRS

[2] = target: T2, Rb^P Q504E (human, UniProt P06400 380-788, Q504E)
T2 construct: also called variant 19
T2 sequence (looked up): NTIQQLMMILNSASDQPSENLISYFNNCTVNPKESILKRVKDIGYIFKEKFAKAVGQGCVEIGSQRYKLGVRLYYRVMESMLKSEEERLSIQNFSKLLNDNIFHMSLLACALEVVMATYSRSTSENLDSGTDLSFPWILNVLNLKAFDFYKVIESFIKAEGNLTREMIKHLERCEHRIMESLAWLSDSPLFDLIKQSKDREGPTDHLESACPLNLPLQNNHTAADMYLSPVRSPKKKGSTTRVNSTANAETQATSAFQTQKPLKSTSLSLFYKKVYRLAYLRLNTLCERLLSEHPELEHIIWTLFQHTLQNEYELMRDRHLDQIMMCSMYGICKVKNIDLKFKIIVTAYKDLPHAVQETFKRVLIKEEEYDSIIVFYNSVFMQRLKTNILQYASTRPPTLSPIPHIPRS

[3] = target: T3, Rb^P A525G (human, UniProt P06400 380-788, A525G)
T3 construct: also called variant 20
T3 sequence (looked up): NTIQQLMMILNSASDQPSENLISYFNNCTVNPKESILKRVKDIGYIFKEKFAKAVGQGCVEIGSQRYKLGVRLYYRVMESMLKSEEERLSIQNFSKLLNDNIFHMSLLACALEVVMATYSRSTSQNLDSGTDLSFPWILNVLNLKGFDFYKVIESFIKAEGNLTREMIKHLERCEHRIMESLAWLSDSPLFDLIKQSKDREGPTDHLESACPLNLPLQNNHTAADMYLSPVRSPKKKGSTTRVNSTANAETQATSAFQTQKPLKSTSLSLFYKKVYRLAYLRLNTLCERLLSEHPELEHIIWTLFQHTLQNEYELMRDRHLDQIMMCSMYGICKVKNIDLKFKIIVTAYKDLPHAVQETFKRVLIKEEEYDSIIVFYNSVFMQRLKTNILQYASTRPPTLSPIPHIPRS

[4] = target: T4, Rb^P L572I (human, UniProt P06400 380-788, L572I)
T4 construct: also called variant 31
T4 sequence (looked up): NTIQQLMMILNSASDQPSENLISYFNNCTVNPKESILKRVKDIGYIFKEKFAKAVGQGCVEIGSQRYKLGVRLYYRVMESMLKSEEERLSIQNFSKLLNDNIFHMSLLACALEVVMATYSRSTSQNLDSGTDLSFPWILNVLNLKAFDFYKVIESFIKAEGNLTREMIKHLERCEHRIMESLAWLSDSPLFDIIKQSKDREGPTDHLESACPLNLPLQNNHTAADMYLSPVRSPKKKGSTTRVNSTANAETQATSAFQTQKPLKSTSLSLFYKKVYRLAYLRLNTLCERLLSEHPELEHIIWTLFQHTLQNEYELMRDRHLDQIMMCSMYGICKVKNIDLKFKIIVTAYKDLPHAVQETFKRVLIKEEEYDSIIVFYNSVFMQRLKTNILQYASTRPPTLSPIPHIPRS

[5] = target: T5, Rb^P R621S (human, UniProt P06400 380-788, R621S)
T5 construct: also called variant 44
T5 sequence (looked up): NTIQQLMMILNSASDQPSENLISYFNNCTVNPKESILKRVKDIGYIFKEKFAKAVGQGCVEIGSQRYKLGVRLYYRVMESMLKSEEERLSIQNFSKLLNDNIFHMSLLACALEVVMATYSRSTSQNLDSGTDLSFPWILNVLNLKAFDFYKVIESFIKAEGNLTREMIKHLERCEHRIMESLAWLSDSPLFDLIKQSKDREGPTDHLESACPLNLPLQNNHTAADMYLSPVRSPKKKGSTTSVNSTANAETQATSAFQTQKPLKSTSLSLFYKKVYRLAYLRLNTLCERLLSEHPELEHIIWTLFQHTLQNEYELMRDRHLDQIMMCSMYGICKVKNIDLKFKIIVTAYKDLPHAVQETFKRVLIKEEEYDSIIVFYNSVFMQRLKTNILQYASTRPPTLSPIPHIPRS

B1: TMR-E2F1^TD, peptide of the E2F1 transactivation domain (peptide)
peptide: {TMR}-GEGIRDLFDCDFGDLTPLD
notes: also called E2F^TD; source: synthetic peptide, bought: GenScript
B1 showed a Kd [1] of 14 nM, a Kd [2] of 18 nM and a Kd [3] of 36 nM. For the same binder, the Kd [4] was 37 nM and the Kd [5] was 21 nM.

B2: TMR-E7^LxCxE, LxCxE peptide of the E7 oncoprotein from HPV (peptide)
peptide: DLYCYEQLN
modifications: also: TMR label, position not given here
notes: source: synthetic peptide, bought: GenScript
Work on B2 yielded a Kd [1] of 5 nM, a Kd [2] of 5 nM and a Kd [3] of 12 nM. The Kd [4] was 4 nM and the Kd [5] was 6 nM.
